Test results from IntAct's records for PubMed 21102411.

B1: Peroxisomal biogenesis factor 19 (Homo sapiens), P40855 (parent)
chain: MAAAEEGCSVGAEADRELEELLESALDDFDKAKPSPAPPSTTTAPDASGPQKRSPGDTAKDALFASQEKFFQELFDSELASQATAEFEKAMKELAEEEPHLVEQFQKLSEAAGRVGSDMTSQQEFTSCLKETLSGLAKNATDLQNSSMSEEELTKAMEGLGMDEGDGEGNILPIMQSIMQNLLSKDVLYPSLKEITEKYPEWLQSHRESLPPEQFEKYQEQHSVMCKICEQFEAETPTDSETTQKARFEMVLDLMQQLQDLGHPPKELAGEMPPGLNFDLDALNLSGPPGASGEQCLIM
partner: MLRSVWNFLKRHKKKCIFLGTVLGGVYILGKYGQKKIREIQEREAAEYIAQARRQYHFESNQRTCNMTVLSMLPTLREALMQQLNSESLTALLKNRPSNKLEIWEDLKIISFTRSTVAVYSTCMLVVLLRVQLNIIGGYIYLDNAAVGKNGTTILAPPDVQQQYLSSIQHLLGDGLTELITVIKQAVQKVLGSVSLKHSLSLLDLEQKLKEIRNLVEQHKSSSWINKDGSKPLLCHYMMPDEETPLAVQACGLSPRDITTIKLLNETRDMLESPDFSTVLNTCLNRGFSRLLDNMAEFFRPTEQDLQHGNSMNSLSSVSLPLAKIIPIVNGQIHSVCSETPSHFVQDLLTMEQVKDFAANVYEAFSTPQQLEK
B2: Peroxisomal biogenesis factor 19 (Homo sapiens), P40855 (parent)
chain: B1 chain
partner: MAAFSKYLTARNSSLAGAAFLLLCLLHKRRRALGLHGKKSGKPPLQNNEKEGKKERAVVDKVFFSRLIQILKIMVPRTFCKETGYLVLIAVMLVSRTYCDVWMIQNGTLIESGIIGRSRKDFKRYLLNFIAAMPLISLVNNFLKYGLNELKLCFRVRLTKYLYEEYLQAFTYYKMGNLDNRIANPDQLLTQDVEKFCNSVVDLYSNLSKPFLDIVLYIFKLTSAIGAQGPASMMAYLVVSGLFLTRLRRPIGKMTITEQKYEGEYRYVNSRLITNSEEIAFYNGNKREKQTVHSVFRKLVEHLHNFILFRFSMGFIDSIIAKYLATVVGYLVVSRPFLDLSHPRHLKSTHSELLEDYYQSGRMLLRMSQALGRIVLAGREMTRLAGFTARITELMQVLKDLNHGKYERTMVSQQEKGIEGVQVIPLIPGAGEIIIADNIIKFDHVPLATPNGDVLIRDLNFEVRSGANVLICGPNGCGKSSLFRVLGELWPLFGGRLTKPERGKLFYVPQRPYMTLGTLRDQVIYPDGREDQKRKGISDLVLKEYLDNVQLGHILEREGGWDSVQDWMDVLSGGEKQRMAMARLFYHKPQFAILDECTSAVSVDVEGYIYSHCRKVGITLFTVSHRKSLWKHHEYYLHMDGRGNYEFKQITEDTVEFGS

Variants of: B1
Conditions: with pex3_human PEX3, P56589

effect of a mutation on the interaction | Variant
decreasing interaction | MAAAEEGCSVGAEADRELEELLESAADDFDKAKPSPAPPSTTTAPDASGPQKRSPGDTAKDALFASQEKFFQELFDSELASQATAEFEKAMKELAEEEPHLVEQFQKLSEAAGRVGSDMTSQQEFTSCLKETLSGLAKNATDLQNSSMSEEELTKAMEGLGMDEGDGEGNILPIMQSIMQNLLSKDVLYPSLKEITEKYPEWLQSHRESLPPEQFEKYQEQHSVMCKICEQFEAETPTDSETTQKARFEMVLDLMQQLQDLGHPPKELAGEMPPGLNFDLDALNLSGPPGASGEQCLIM [L26A]

Variants of: B1
Conditions: with pex3_human PEX3, P56589
Remark: another data set of the same source

effect of a mutation on the interaction | Variant
decreasing interaction | MAAAEEGCSVGAEADRELEELLESALDAFDKAKPSPAPPSTTTAPDASGPQKRSPGDTAKDALFASQEKFFQELFDSELASQATAEFEKAMKELAEEEPHLVEQFQKLSEAAGRVGSDMTSQQEFTSCLKETLSGLAKNATDLQNSSMSEEELTKAMEGLGMDEGDGEGNILPIMQSIMQNLLSKDVLYPSLKEITEKYPEWLQSHRESLPPEQFEKYQEQHSVMCKICEQFEAETPTDSETTQKARFEMVLDLMQQLQDLGHPPKELAGEMPPGLNFDLDALNLSGPPGASGEQCLIM [D28A]

Variants of: B1
Conditions: with pex3_human PEX3, P56589
Remark: another data set of the same source

effect of a mutation on the interaction | Variant
disrupting interaction | MAAAEEGCSVGAEADRELEELLESALDDADKAKPSPAPPSTTTAPDASGPQKRSPGDTAKDALFASQEKFFQELFDSELASQATAEFEKAMKELAEEEPHLVEQFQKLSEAAGRVGSDMTSQQEFTSCLKETLSGLAKNATDLQNSSMSEEELTKAMEGLGMDEGDGEGNILPIMQSIMQNLLSKDVLYPSLKEITEKYPEWLQSHRESLPPEQFEKYQEQHSVMCKICEQFEAETPTDSETTQKARFEMVLDLMQQLQDLGHPPKELAGEMPPGLNFDLDALNLSGPPGASGEQCLIM [F29A]

Variants of: B1
Conditions: with pex3_human PEX3, P56589
Remark: another data set of the same source

effect of a mutation on the interaction | Variant
disrupting interaction | MAAAEEGCSVGAEADRELEELAESALDDFDKAKPSPAPPSTTTAPDASGPQKRSPGDTAKDALFASQEKFFQELFDSELASQATAEFEKAMKELAEEEPHLVEQFQKLSEAAGRVGSDMTSQQEFTSCLKETLSGLAKNATDLQNSSMSEEELTKAMEGLGMDEGDGEGNILPIMQSIMQNLLSKDVLYPSLKEITEKYPEWLQSHRESLPPEQFEKYQEQHSVMCKICEQFEAETPTDSETTQKARFEMVLDLMQQLQDLGHPPKELAGEMPPGLNFDLDALNLSGPPGASGEQCLIM [L22A]

Variants of: B1
Conditions: with pex3_human PEX3, P56589
Remark: another data set of the same source

effect of a mutation on the interaction | Variant
disrupting interaction | MAAAEEGCSVGAEADREAEELLESALDDFDKAKPSPAPPSTTTAPDASGPQKRSPGDTAKDALFASQEKFFQELFDSELASQATAEFEKAMKELAEEEPHLVEQFQKLSEAAGRVGSDMTSQQEFTSCLKETLSGLAKNATDLQNSSMSEEELTKAMEGLGMDEGDGEGNILPIMQSIMQNLLSKDVLYPSLKEITEKYPEWLQSHRESLPPEQFEKYQEQHSVMCKICEQFEAETPTDSETTQKARFEMVLDLMQQLQDLGHPPKELAGEMPPGLNFDLDALNLSGPPGASGEQCLIM [L18A]

Variants of: B1
Conditions: with pex3_human PEX3, P56589
Remark: another data set of the same source

effect of a mutation on the interaction | Variant
decreasing interaction | MAAAEEGCSVGAEADREAEELLESALDDFDKAKPSPAPPSTTTAPDASGPQKRSPGDTAKDALFASQEKFFQELFDSELASQATAEFEKAMKELAEEEPHLVEQFQKLSEAAGRVGSDMTSQQEFTSCLKETLSGLAKNATDLQNSSMSEEELTKAMEGLGMDEGDGEGNILPIMQSIMQNLLSKDVLYPSLKEITEKYPEWLQSHRESLPPEQFEKYQEQHSVMCKICEQFEAETPTDSETTQKARFEMVLDLMQQLQDLGHPPKELAGEMPPGLNFDLDALNLSGPPGASGEQCLIM [L18A]

Variants of: B1
Conditions: with pex3_human PEX3, P56589
Remark: another data set of the same source

effect of a mutation on the interaction | Variant
disrupting interaction | MAAAEEGCSVGAEADRELEEALESALDDFDKAKPSPAPPSTTTAPDASGPQKRSPGDTAKDALFASQEKFFQELFDSELASQATAEFEKAMKELAEEEPHLVEQFQKLSEAAGRVGSDMTSQQEFTSCLKETLSGLAKNATDLQNSSMSEEELTKAMEGLGMDEGDGEGNILPIMQSIMQNLLSKDVLYPSLKEITEKYPEWLQSHRESLPPEQFEKYQEQHSVMCKICEQFEAETPTDSETTQKARFEMVLDLMQQLQDLGHPPKELAGEMPPGLNFDLDALNLSGPPGASGEQCLIM [L21A]

Variants of: B1
Conditions: with pex3_human PEX3, P56589
Remark: another data set of the same source

effect of a mutation on the interaction | Variant
decreasing interaction | MAAAEEGCSVGAEADRELEEALESALDDFDKAKPSPAPPSTTTAPDASGPQKRSPGDTAKDALFASQEKFFQELFDSELASQATAEFEKAMKELAEEEPHLVEQFQKLSEAAGRVGSDMTSQQEFTSCLKETLSGLAKNATDLQNSSMSEEELTKAMEGLGMDEGDGEGNILPIMQSIMQNLLSKDVLYPSLKEITEKYPEWLQSHRESLPPEQFEKYQEQHSVMCKICEQFEAETPTDSETTQKARFEMVLDLMQQLQDLGHPPKELAGEMPPGLNFDLDALNLSGPPGASGEQCLIM [L21A]

Variants of: B2
Conditions: with abcd3_human ABCD3, P28288

effect of a mutation on the interaction | Variant
disrupting interaction | MAAAEEGCSVGAEADRELEELAESALDDFDKAKPSPAPPSTTTAPDASGPQKRSPGDTAKDALFASQEKFFQELFDSELASQATAEFEKAMKELAEEEPHLVEQFQKLSEAAGRVGSDMTSQQEFTSCLKETLSGLAKNATDLQNSSMSEEELTKAMEGLGMDEGDGEGNILPIMQSIMQNLLSKDVLYPSLKEITEKYPEWLQSHRESLPPEQFEKYQEQHSVMCKICEQFEAETPTDSETTQKARFEMVLDLMQQLQDLGHPPKELAGEMPPGLNFDLDALNLSGPPGASGEQCLIM [L22A]

Variants of: B2
Conditions: with abcd3_human ABCD3, P28288
Remark: another data set of the same source

effect of a mutation on the interaction | Variant
disrupting interaction | MAAAEEGCSVGAEADRELEELLESALDDADKAKPSPAPPSTTTAPDASGPQKRSPGDTAKDALFASQEKFFQELFDSELASQATAEFEKAMKELAEEEPHLVEQFQKLSEAAGRVGSDMTSQQEFTSCLKETLSGLAKNATDLQNSSMSEEELTKAMEGLGMDEGDGEGNILPIMQSIMQNLLSKDVLYPSLKEITEKYPEWLQSHRESLPPEQFEKYQEQHSVMCKICEQFEAETPTDSETTQKARFEMVLDLMQQLQDLGHPPKELAGEMPPGLNFDLDALNLSGPPGASGEQCLIM [F29A]
